Assay results: patent publication US20130224191A1, “NOTUM PROTEIN MODULATORS AND METHODS OF USE” (priority 2010, published 2013)

Assays:
human Notum D141N, D141S = target: T1, human Notum D141N, D141S (Homo sapiens, UniProt Q6P988, D141N); experiment: Neutralization of point mutated human Notum, TCF assay; format: cell-based; settings: human D141N or D141S
T1 construct: made in house
T1 sequence (Q6P988 20-496 D141N): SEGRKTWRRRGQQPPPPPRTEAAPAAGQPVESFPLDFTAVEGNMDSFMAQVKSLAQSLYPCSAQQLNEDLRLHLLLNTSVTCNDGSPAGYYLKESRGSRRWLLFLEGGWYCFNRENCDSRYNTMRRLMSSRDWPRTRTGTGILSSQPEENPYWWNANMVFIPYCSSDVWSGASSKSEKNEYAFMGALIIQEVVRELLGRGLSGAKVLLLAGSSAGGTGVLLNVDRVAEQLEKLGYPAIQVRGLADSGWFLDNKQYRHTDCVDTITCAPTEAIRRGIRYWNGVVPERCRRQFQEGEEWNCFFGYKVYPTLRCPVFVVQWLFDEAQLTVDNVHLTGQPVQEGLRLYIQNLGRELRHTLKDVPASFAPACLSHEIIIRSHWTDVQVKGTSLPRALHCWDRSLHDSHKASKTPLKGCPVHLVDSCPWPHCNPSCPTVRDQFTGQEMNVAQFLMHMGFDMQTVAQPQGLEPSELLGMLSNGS
Excerpt: (§1) Similarly, the macaque residue at this position was point mutated to the human residue (N141D). […] However, these point mutants differed in their ability to be neutralized by SC2.D2.2 (FIG. 26).

macaque Notum N141D = experiment: Neutralization of point mutated macaque Notum, 4-MUH assay; format: biochemical
Experimental: In addition to the assays described in Examples 23 and 24, a fluorescent esterase substrate, 4-methylumbelliferyl heptanoate (Sigma), can be used to measure the activity of hydrolases using standard assay conditions (Richardson and Smith, 2007, PMID: 17620441; Jacks and Kircher, 1967, PMID: 5582971). Briefly, 4-MUH was dissolved in DMSO to a final concentration of 1.2 mM. This substrate was diluted 1:10 into assay buffer (0.1M Tris, pH 7.5, 50 mM NaCl, 0.05% Brij) and incubated with defined amounts of Notum enzyme or point-mutated Notum enzymes, and enzymatic release of the fluorescent molecule 4-methylumbelliferone monitored (355 nm excitation, 460 nm emission) using a Wallac Victor3 Multilabel Counter (Perkin Elmer).
as §1

[1] = target: T2, hNotum-His (His tagged human Notum) (human, UniProt Q6P988 20-496); experiment: sandwich ELISA: SC2.D2.2 coated at 2 ug/ml captures Notum-His, detected with biotinylated mouse polyclonal anti-Notum 0.5 ug/ml and streptavidin-HRP, TMB, OD450
T2 construct: also called human Notum-His; NOTUM-StrepHis
T2 sequence: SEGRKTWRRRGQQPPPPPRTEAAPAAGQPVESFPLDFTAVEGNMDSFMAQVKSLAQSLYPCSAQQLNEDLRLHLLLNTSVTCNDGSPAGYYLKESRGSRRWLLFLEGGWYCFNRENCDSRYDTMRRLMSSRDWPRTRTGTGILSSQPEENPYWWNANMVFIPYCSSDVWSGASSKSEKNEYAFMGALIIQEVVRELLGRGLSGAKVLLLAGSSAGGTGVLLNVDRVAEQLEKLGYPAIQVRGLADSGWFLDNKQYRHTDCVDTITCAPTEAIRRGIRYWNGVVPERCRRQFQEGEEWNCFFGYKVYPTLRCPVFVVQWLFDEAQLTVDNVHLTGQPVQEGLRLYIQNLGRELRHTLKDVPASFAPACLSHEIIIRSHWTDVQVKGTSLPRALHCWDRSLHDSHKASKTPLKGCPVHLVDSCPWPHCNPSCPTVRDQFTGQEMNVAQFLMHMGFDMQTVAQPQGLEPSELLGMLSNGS
Experimental: More specifically, murine SC2.D2.2 was absorbed on standard ELISA plates at 2 μg/ml in a 50 mM sodium carbonate buffer at pH9.6. After washing the plates with PBS containing 0.05% (v/v) Tween-20 (PBST), the plates were blocked in PBS containing 2% (w/v) bovine serum albumin (BSA buffer) for two hours at ambient temperature. The content of the plates was flicked off, and purified recombinant Notum-His at varying concentrations (i.e., to provide the standard curve) or patient samples diluted in BSA buffer were added to the plates for a minimum of two hours at ambient temperature. The plates were washed in PBST before adding Notum-specific mouse polyclonal antibody conjugated to biotin at 0.5 μg/ml in BSA buffer. After incubation for one hour, the plate was washed again with PBST and incubated for 30 minutes with a 1:2000 dilution of Streptavidin conjugated to horse radish peroxidase (Jackson Immuno Research). After washing all plates twice with PBST, 100 μl TMB substrate (Thermo Scientific) was added to the wells and incubated for 30 minutes in the dark. Color reaction was stopped by adding 100 μl/well 2M sulfuric acid. Absorbance at OD 450 nm was read in all wells using a standard plate reader.

B1: SC2.D2.2 (antibody, V domains shown)
VH: DVQLVESGGGLVQPGGSRKISCAASGFTFSSYGMHWVRQAPEKGLEWVAYISSSTVTTYYADTVKGRFTISRDNANNTLFLQMTSLRSEDTAMYYCSRQNWDGGYFDVWGAGTTVTVSS
VL: DIVLTQSLASLAVSLGQRATISCRASKSVSSSGYSYMHWYQQKPGQPPKLLIYLASNLESGVPARFSGSGSGTDFTLNIHPVEEEDAATYYCQHSRALPLTFGAGTKLELKR
notes: also called murine SC2.D2.2
- neutralization of mutant Notum protein (human Notum D141N, D141S): eliminated the ability of SC2.D2.2 to neutralize the mutant Notum protein
- neutralization of mutant Notum protein (macaque Notum N141D): enabled the antibody to neutralize the mutant protein
- EC50 (read off the curve) [1]: ~9 ng/mL
